According to patent publication US6482933 (Takeda / Millennium, dated 2002):

Target: T1, CARD-4L epitope tagged with HA (pCI-CARD-4LcHA) (human, UniProt Q9Y239 1-953)
T1 construct: Expressed in 293T cells from pCI; in cell lysate
T1 sequence: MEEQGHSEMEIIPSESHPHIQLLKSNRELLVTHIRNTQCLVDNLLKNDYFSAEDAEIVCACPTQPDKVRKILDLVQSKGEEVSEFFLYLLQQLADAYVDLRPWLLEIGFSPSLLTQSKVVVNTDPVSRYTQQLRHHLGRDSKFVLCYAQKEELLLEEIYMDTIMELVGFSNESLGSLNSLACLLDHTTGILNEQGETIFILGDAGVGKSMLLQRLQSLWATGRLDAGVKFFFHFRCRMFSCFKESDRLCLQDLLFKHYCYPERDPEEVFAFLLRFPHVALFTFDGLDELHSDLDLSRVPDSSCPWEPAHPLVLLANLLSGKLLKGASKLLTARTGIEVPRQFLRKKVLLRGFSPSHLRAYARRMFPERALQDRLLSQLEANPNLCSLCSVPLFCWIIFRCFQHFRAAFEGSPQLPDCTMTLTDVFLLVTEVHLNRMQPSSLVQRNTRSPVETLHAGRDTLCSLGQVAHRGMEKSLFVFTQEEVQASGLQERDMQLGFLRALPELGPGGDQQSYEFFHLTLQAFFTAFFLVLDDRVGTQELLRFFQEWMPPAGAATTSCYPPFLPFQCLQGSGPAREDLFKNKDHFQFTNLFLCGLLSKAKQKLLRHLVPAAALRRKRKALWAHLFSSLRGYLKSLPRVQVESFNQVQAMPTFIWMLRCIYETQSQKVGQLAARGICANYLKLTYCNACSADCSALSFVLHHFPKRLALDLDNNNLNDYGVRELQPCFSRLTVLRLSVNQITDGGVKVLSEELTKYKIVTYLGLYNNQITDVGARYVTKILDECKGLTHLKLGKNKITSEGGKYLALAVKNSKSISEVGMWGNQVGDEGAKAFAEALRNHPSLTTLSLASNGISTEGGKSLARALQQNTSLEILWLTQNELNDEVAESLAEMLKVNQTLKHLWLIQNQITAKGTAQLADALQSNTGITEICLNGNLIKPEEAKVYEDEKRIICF
Experiment: coimmunoprecipitation from cotransfected 293T cells (anti-MYC IP, anti-HA Western blot)
Method: Cells from each transfected line were lysed and an immunoprecipitation procedure was carried out on each lysate with an anti-MYC epitope tag antibody to precipitate the CARD-4LcHA expressed by each cell line and any physically associated proteins.

binding result: no binding
B1: CARD-3 lacking the CARD domain (SEQ ID NO:6) epitope tagged with MYC (pCI-CARD3noCARDnMYC) (other, not shown: small tags and cut ends)
chain: MNGEAICSALPTIPYHKLADLRYLSRGASGTVSSARHADWRVQVAVKHLHIHTPLLDSERKDVLREAEILHKARFSYILPILGICNEPEFLGIVTEYMPNGSLNELLHRKTEYPDVAWPLRFRILHEIALGVNYLHNMTPPLLHHDLKTQNILLDNEFHVKIADFGLSKWRMMSLSQSRSSKSAPEGGTIIYMPPENYEPGQKSRASIKHDIYSYAVITWEVLSRKQPFEDVTNPLQIMYSVSQGHRPVINEESLPYDIPHRARMISLIESGWAQNPDERPSFLKCLIELEPVLRTFEEITFLEAVIQLKKTKLQSVSSAIHLCDKKKMELSLNIPVNHGPQEESCGSSQLHENSGSPETSRSLPAPQDNDFLSRKAQDCYFMKLHHCPGNHSWDSTISGSQRAAFCDHKTIPCSSAIINPLSTAGNSERL
notes: also called CARD-3 lacking its CARD domain
